From US8420776B2, “Ube2G2 binding domain in the ubiquitin ligase gp78 and methods of use thereof” (The United States of America, as Represented by the …, priority 2004, dated 2013)

What was measured:
gp78 [1] = experiment: gp78 ubiquitylation in transfected cells (IP anti-gp78, IB anti-ubiquitin); assay type: cell-based; details: 50 μM MG132 eight hours
Description: FIGS. 20A-20E depict the requirement of multiple domains of gp78 to target itself and a heterologous ERAD substrate. (FIG. 20A) Cells were co-transfected with the indicated forms of full length gp78 together with CD3-δ and lysates analyzed by IB. (B) Cells were transfected with wild type and mutant gp78 plasmids as indicated. Samples were treated with 50 μM MG132 for eight hours, lysates IP'ed with anti-gp78 followed by […] with either antiubiquitin (upper) or anti-gp78 (lower). Arrow in upper panel indicates migration of unmodified gp78. (FIGS. 20C and 20D) Cells were co-transfected with HA-CD3-δ and wild type (WT) or mutant forms of gp78. Cells were treated with cycloheximide (CHX) as indicated. (FIG. 20E) Graphic representation of CD3-δ levels from FIGS. 20C and 20D (fall length gp78 transfections only), Cue-m1, 2 is the average of data shown in FIGS. 20C and 20D.
Transfections of HT1080, NIH 3T3 and HEK 293T cells were carried out ˜24 hr after plating using Polyfect (Qiagen, Valencia, Calif.) and cells harvested after ˜48 hr. J558 cells were transfected by electroporation using Bio-rad GENE pulser II at settings of 250 v, 950uF. Vector without insert was used to equalize total plasmid. In most experiments 0.15 μg of pEGFP-C1 served as an internal control. For experiments not involving immunoprecipitation, 6×10^5 cells were plated in 6 well plates and cell lysis was with Mammalian Protein Extraction Reagent (Pierce). For immunoprecipitation, 2.4×10^6 cells were seeded in 100 mm dishes and cells were lysed in RIPA buffer (1×PBS, 1% Nonidet P40. 0.5% sodium deoxycholate, 0.1% SDS). […] Supernatants were analyzed after a 10,000×g centrifugation using standard techniques for immunoprecipitation, SDS-PAGE, immunoblotting and ECL. […]
(§1) gp78 is degraded in a proteasome-dependent manner, and deletion of the entire cytoplasmic domain results in its stabilization. […] To determine the significance of the RING finger, Cue domain and Ube2G2 binding site on gp78 stability, mutations of each were evaluated within full-length gp78. […]

ERAD substrate CD3-δ = experiment: CD3-δ level in co-transfected cells by immunoblotting; assay type: cell-based; details: co-transfection with CD3-δ; immunoblot
Description: (§2) Transfections of HT1080, NIH 3T3 and HEK 293T cells were carried out ˜24 hr after plating using Polyfect (Qiagen, Valencia, Calif.) and cells harvested after ˜48 hr. J558 cells were transfected by electroporation using Bio-rad GENE pulser II at settings of 250 v, 950uF. Vector without insert was used to equalize total plasmid. In most experiments 0.15 μg of pEGFP-C1 served as an internal control. For experiments not involving immunoprecipitation, 6×10^5 cells were plated in 6 well plates and cell lysis was with Mammalian Protein Extraction Reagent (Pierce). For immunoprecipitation, 2.4×10^6 cells were seeded in 100 mm dishes and cells were lysed in RIPA buffer (1×PBS, 1% Nonidet P40. 0.5% sodium deoxycholate, 0.1% SDS). Lysis buffers were supplemented with Protease Inhibitor Cocktail (Sigma) and 10 mM iodoacetamide. Supernatants were analyzed after a 10,000×g centrifugation using standard techniques for immunoprecipitation, SDS-PAGE, immunoblotting and ECL. Treatment of cells with MG132 (Sigma) was at 50 μM for eight hr. Cycloheximnide was used at 50 μg/ml. All cells were collected at the end of the six hr chase.
FIG. 7 depicts the stabilization of CD3-δ protein in cells transfected with the G2BD, but not with the G2BD with amino acids 579-584 (of SEQ ID NO:2) mutated. HEK 293T cells were transfected with the ERAD substrate CD3-δ along with the indicated GFP fusions of gp78. The left and right sides are two separate experiments.
To test this, GFP fusions of either a minimal E2 binding domain (GFP-574-611) or a more extended region that includes the C-terminus of gp78 (GFP-574-643) were evaluated (FIG. 21A). […] To assess this further, the C-terminal region of gp78 was fused to the eight amino acid Flag tag. […] Mdm2 is a RING finger E3 for both itself and p53 that is neither an ERAD substrate nor known to utilize Ube2G2 as an E2. […] To establish with certainty that the effect observed with expression of the Ube2G2 binding site is a consequence of binding endogenous E2, and not due to other unanticipated effects, cells were co-transfected with increasing amounts of Ube2G2 (FIG. 21C, lanes 3 and 4). […] These findings clearly establish that the isolated E2 binding site has the potential to markedly alter ERAD of CD3-δ. To ensure the effect observed was not peculiar to one substrate, TCR-α was evaluated (FIG. 21D).

gp78 [2] = experiment: gp78 level in transfected cells by immunoblotting; assay type: cell-based; details: full-length gp78 forms; immunoblot
Description: as §2, with “All cells were collected at the end of the six hr chase.” left out
as §1

UbcH5B = target: T1, UbcH5B (Homo sapiens, UniProt P62837); experiment: GST pull-down binding of in vitro translated UbcH5B; details: GST fusion pull-down
T1 construct: made in house; host or cells: in vitro translation in wheat germ
Description: GST fusions were purified from E. Coli. Binding was carried out using equi-molar amount of fusion proteins measured by Commassie blue staining. Generally, 20 picomoles/sample were used. In vitro translated E2 was generated by coupled transcription and translation using 35S methionine in either wheat germ or rabbit reticulocyte lysate. Binding assays using in vitro translated E2 was carried out by incubating GST protein pre-bound to Glutathione-sepharose 4B with […] of ^35S-methionine labeled E2 in binding buffer (25 mM Tris-HCl, pH 7.4; 50 mM NaCl, 5 mM DTT; and 0.5% NP-40) overnight at 4° C. Beads were washed with binding buffer and resolved by SDS-PAGE under reducing conditions. Analysis was by Storm PhosphoImager (Applied Biosystems, Foster City, Calif.). Direct binding assays used wild type His6-MmUbc7 (His6-Ube2G2) and Glutathione-sepharose bound GST fusions. Beadbound GST protein was incubated with 100 ng purified His6-MmUbc7 in binding buffer and washed and eluted as above. After transfer to Hybond-P (Amersham Biosciences) binding was assessed with anti-His6 followed by Enhanced Chemiluminescence ECL; Pierce). Ubiquitin binding studies were performed with binding and washing as above using 1 μg K48 tetra-ubiquitin produced as described (Piotrowski et al., 1997). Detection was by anti-ubiquitin immunoblotting. […]

Myc-Ube2G2 = target: T2, Myc-Ube2G2 (Mus musculus, UniProt P60605); experiment: Co-immunoprecipitation with co-expressed Myc-Ube2G2 in cells; assay type: cell-based; details: anti-Myc IP, anti-gp78 IB; MG132 8 hr
T2 construct: expressed in transfected cells; host or cells: HEK 293T
T2 sequence (P60605 1-165): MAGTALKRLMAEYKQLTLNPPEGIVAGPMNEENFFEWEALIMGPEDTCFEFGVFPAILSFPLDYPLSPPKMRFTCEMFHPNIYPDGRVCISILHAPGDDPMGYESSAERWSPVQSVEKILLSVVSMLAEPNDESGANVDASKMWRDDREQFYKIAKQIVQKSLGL
Description: as §2
FIG. 5 depicts the results of immunoprecipitation of Ube2G2 (MmUbc7) from HEK 293T cells co-transfected with a plasmid encoding myc-tagged MmUbc7/Ube2G2 together with s plasmid encoding various forms of gp78. HEK 293T cells were transfected with a plasmid encoding myc-tagged MmUbc7/Ube2G2 together with plasmids encoding various forms of gp78. After 48 hours, cells were harvested and co-immuntoprecipitated with an anti-Myc tage. Anti-gp78 was used for detection. “R2M” indicates a mutation of two crucial residues in the RING finger. “T” indicates C terminal truncations at the indicated amino acids. ΔB is the mutation indicated above in FIG. 4 in the context of the full length gp78 and “Cue12M” indicates mutations in the Cue domain of gp78.
To confirm the significance of the Ube2G2 binding site in cells, a variety of mutations and truncations of full-length gp78 were tested for binding of co-expressed Myc-Ube2G2 (FIG. 19A). Cells were treated with the proteasome inhibitor MG132 in an attempt to equalize levels of the various forms of gp78.

T1 sequence (P62837 whole entry, the tested form may be a part): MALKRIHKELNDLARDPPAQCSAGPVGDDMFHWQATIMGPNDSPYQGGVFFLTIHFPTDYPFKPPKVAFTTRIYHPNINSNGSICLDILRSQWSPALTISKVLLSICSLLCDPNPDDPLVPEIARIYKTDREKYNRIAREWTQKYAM

B1: gp78Cue-m1, 2: full-length gp78 with mutations in the Cue domain (label Cue-m1, 2 in b279) (protein)
chain: MPLLFLERFPWPSLRTYTGLSGLALLGTIISAYRALSQPEAGPGEPDQLTASLQPEPPAPARPSAGGPRARDVAQYLLSDSLFVWVLVNTACCVLMLVAKLIQCIVFGPLRVSERQHLKDKFWNFIFYKFIFIFGVLNVQTVEEVVMWCLWFAGLVFLHLMVQLCKDRFEYLSFSPTTPMSSHGRVLSLLVAMLLSCCGLAAVCSITGYTHGMHTLAFMAAESLLVTVRTAHVILRYVIHLWDLNHEGTWEGKGTYVYYTDFVMELTLLSLDLMHHIHMLLFGNIWLSMASLVIFMQLRYLFHEVQRRIRRHKNYLRVVGNMEARFAVATPEELAVNNDDCAICWDSMQAARKLPCGHLFHNSCLRSWLEQDTSCPTCRMSLNIADNNRVREEHQGENLDENLVPVAAAEGRPRLNQHNHFFHFDGSRIASWLPSFSVEVMHTTNILGITQASNSQLNAMAHQIQEGGRQVPYHLRLQVDQLTRSVEITTDNILEGRIQVPFPTQRSDSIRPALNSPVERPSSDQEEGETSAQTERVPLDLSPRLEETLDFGEVEVEPSEVEDFEARGSRFSKSADERQRMLVQRKDELLQQARKRFLNKSSEDDAASESFLPLEGASSDPVTLRRRMLAAAAERRLQKQQTS
gp78 [1]
  gp78 ubiquitylation (ubiquitin immunoreactivity): dramatic decrease in ubiquitin immunoreactivity
ERAD substrate CD3-δ
  effect on CD3-δ level (stabilization): marked increase in CD3-δ
gp78 [2]
  gp78 level compared to wild type: increased gp78

B2: AO7: GST fusion of the RING finger and surrounding regions of the unrelated E3 enzyme AO7 (protein)
chain: QIHKISQALGHVAKEGLGTAMLYELIEKGKEILTDNNIPHGQCVICLYGFQEKEAFTKTPCYHYFHCHCLARYIQHMEQELTTQEQEQERQHVVTKQKAVGVQCPVCREPLVYDLASLKAAPEPQQPMELYQPSAESLRQQEELKLLYQRQQEKGGIIDLEAERNRYF
modifications: left off: a dimerising Fc or GST
UbcH5B
  binding to in vitro translated UbcH5B: did bind

B3: gp78E2-m2: full-length gp78 with residues 579-584 mutated (label E2-m2 in b279) (protein)
chain: MPLLFLERFPWPSLRTYTGLSGLALLGTIISAYRALSQPEAGPGEPDQLTASLQPEPPAPARPSAGGPRARDVAQYLLSDSLFVWVLVNTACCVLMLVAKLIQCIVFGPLRVSERQHLKDKFWNFIFYKFIFIFGVLNVQTVEEVVMWCLWFAGLVFLHLMVQLCKDRFEYLSFSPTTPMSSHGRVLSLLVAMLLSCCGLAAVCSITGYTHGMHTLAFMAAESLLVTVRTAHVILRYVIHLWDLNHEGTWEGKGTYVYYTDFVMELTLLSLDLMHHIHMLLFGNIWLSMASLVIFMQLRYLFHEVQRRIRRHKNYLRVVGNMEARFAVATPEELAVNNDDCAICWDSMQAARKLPCGHLFHNSCLRSWLEQDTSCPTCRMSLNIADNNRVREEHQGENLDENLVPVAAAEGRPRLNQHNHFFHFDGSRIASWLPSFSVEVMHTTNILGITQASNSQLNAMAHQIQEMFPQVPYHLVLQDLQLTRSVEITTDNILEGRIQVPFPTQRSDSIRPALNSPVERPSSDQEEGETSAQTERVPLDLSPRLEETLDFGEVEVEPSEVEDFEARGSRFSKSADERAAAGGGRKDELLQQARKRFLNKSSEDDAASESFLPLEGASSDPVTLRRRMLAAAAERRLQKQQTS
Myc-Ube2G2
  E2 association of full-length gp78 forms with co-expressed Myc-Ube2G2: loss of E2 binding
gp78 [1]
  gp78 ubiquitylation (ubiquitin immunoreactivity): dramatic decrease in ubiquitin immunoreactivity
ERAD substrate CD3-δ
  effect on CD3-δ level (stabilization): neither significantly stabilized CD3-δ nor enhanced its loss
gp78 [2]
  gp78 level compared to wild type: increased gp78
